Experimental data taken from patent US20230181719A1, “NGR CONJUGATES AND USES THEREOF” (OSPEDALE SAN RAFFAELE S.R.L., priority 2020, published 2023).
Starred links: 1 amine or outer side, 2 acyl side, 3 side chain; linkers in the order of their positions; H or OH if unused. Positions of bridges follow the written chain, without caps; N, C: chain ends. Non-standard residues stand in square brackets, D forms with d. Residues, ends and D or L forms follow the SMILES beside them. No end group written: not given here. βAsp = O=C(O)[C@H](CC(=O)[*:2])N[*:1]

Experiments:
[1] = Peptide deamidation stability upon incubation at 37° C., by mass spectrometry; type: physicochemical; details: pH 7.4
Protocol: FIG. 11. The peptide SCNGRCGVRY (SEQ ID NO: 3) has a lower propensity to deamidate than CNGRCGVRY (SEQ ID NO:4) in a physiological buffer at […], but not in ammonium bicarbonate buffer at pH 8.5. A and B) MS analysis of SCNGRCGVRY (SEQ ID NO: 3) and CNGRCGVRY (SEQ ID NO:4) after incubation at 37° C. for the indicated time in 50 mM sodium phosphate buffer, pH 7.4 (PBS) or 0.1 M ammonium bicarbonate buffer, pH 8.5 (Ambic). The values +0, + 1, -17 reported in the plot correspond to the difference between the observed and the expected molecular mass of peptides expressed in daltons. MS analysis was performed using the LTQ-Orbitrap mass spectrometer (Thermo Scientific).
To assess whether the addition of the serine residue to CNGRCG (SEQ ID NO:1) might affect its deamidation propensity inventors synthetized the SCNGRCGVRY (SEQ ID NO: 3) and CNGRCGVRY (SEQ ID NO:4) peptides and studied their stability upon incubation at 37° C. in PBS, pH 7.4, by mass spectrometry.
A similar experiment was then performed with peptides in 0.1 M ammonium bicarbonate, pH 8.5, a condition known to force Asn deamidation (Curnis et al. 2006). […] Furthermore, the succinimide-derivative of S-NGR-TNF, when formed, is more prone to hydrolysis.

αvβ3 = αvβ3 (Homo sapiens, UniProt P05106+P06756); assay: Competitive binding of acetyl-CisoDGRCG/streptavidin-peroxidase to integrin-coated microtiterplates; details: αvβ3, αvβ5, αvβ6, αvβ8 and α5β1 (all integrins)
Text: To assess whether the isoDGR derivative of S-NGR-TNF and NGR-TNF targeting domains can recognize integrins with similar affinities inventors then analysed the binding of SCisoDGRCGVRY (SEQ ID NO: 17), CisoDGRCGVRY and acetyl-CisoDGRCGVRY to αvβ3, αvβ5, αvβ6 αvβ8 and α5β1 integrins using a competitive binding assay previously described (Curnis et al. 2010). […] As expected […] (SEQ ID NO: 3) and […] […] Considering that human NGR-TNF contains acetylated and non-acetylated forms and that both CNGRC (SEQ ID NO:5) and acetyl-CNGRC can undergo deamidation (Curnis et al. 2010), inventors can conclude that the isoDGR derivative of S-NGR-TNF, if formed, behave in a manner similar to those of the isoDGR derivatives of NGR-TNF in terms of integrin recognition.

L-M cells = assay: LM-cells cytolytic assay (MTT); type: cell-based; details: actinomycin D, 20 h, murine proteins
Text: FIG. 8. Biochemical and biological characterization of murine S-NGR-TNF and NGR-TNF. A) SDS-PAGE under reducing (βMe +) and non-reducing conditions (βMe -) of murine S-NGR-TNF, NGR-TNF and TNF. Arrows: bands corresponding to monomeric subunits (mon) and reducible dimers (dim). B) Representative mass spectra of murine NGR-TNF, TNF and S-NGR-TNF as determined by a Q Exactive HF mass spectrometer. Expected average masses are shown. C) Cytotoxic activity of TNF, NGR-TNF and S-NGR-TNF against L-M cells. L-M cells were incubated in DMEM medium supplemented with 2 mM glutamine, 100 U/ml penicillin, 100 µg/ml streptomycin, 0.25 µg/ml amphotericin-B, 10% fetal bovine serum, 2 µg/ml actinomycin D and TNF, NGR-TNF or S-NGR-TNF at the indicated doses (20 h at 37° C., 5% CO2). Cell viability was quantified by standard 3-(4,5-dimethylthiazol-2-yl)-2,5-diphenyltetrazolium bromide (MTT) assay. D) Binding of TNF, NGR-TNF and S-NGR-TNF to sTNF-R1 (Etanercept). Microtiterplates were precoated with or without the indicated amount of sTNF-R1 (for 16 h), washed with PBS, blocked with PBS containing 3% milk, 1% BSA (binding buffer, 1 h) and incubated with the indicated amounts of TNF, NGR-TNF or S-NGR-TNF diluted in binding buffer (for 1.5 h). The binding of each protein to sTNF-R1 was then detected using a polyclonal anti-murine TNF (IP301, 5 µg/ml in binding buffer, 1 h) followed by a polyclonal goat anti-rabbit antibody conjugated with horseradish peroxidase (1:1000 in binding buffer, 1 h) and o-phenylendiammine as chromogenic substrate.
To assess whether the addition of a serine residue to NGR-TNF affects its capability to recognize the TNF receptors and, consequently, its biological activity, inventors then analyzed the cytotoxic activity of TNF, NGR-TNF and S-NGR-TNF in the LM-cells cytolytic assay.

αvβ3 integrin = biological target: T1, αvβ3 integrin (UniProt P06756 31-992; P05106 27-718, limits assumed); assay: competitive binding assay, integrin-coated plates; competitor probe acetyl-CisoDGRCG/streptavidin-peroxidase
T1 construct: Coated on microtiter plates
Text: (§1) To assess whether the isoDGR derivative of S-NGR-TNF and NGR-TNF targeting domains can recognize integrins with similar affinities inventors then analysed the binding of SCiso[…] (SEQ ID NO: 17), Ciso[…] and acetyl-Ciso[…] to αvβ3, αvβ5, αvβ6 αvβ8 and α5β1 integrins using a competitive binding assay previously described (Curnis et al. 2010). […] Considering that human NGR-TNF contains acetylated and non-acetylated forms and that both CNGRC (SEQ ID NO:5) and acetyl-CNGRC can undergo deamidation (Curnis et al. 2010), inventors can conclude that the isoDGR derivative of S-NGR-TNF, if formed, behave in a manner similar to those of the isoDGR derivatives of NGR-TNF in terms of integrin recognition.
(§2) a) Competitive binding of acetyl-CisoDGRCG/streptavidin-peroxidase to integrins. The binding assay was performed using integrin-coated microtiterplates as previously described (Curnis et al. 2013). b) n, number of independent experiments, each in duplicate.

αvβ8 integrin = biological target: T2, αvβ8 integrin (UniProt P06756 31-992; P26012 43-684, limits assumed); assay: as above
T2 construct: Coated on microtiter plates
Text: as §1, §2

αvβ6 integrin = biological target: T3, αvβ6 integrin (UniProt P06756 31-992; P18564 22-707, limits assumed); assay: as above
T3 construct: Coated on microtiter plates
Text: as §1, §2

αvβ5 integrin = biological target: T4, αvβ5 integrin (UniProt P06756 31-992; P18084 24-719, limits assumed); assay: as above
T4 construct: Coated on microtiter plates
Text: as §1, §2

α5β1 integrin = biological target: T5, α5β1 integrin (UniProt P08648 42-995; P05556 21-728, limits assumed); assay: as above
T5 construct: Coated on microtiter plates
Text: as §1, §2

[2] = biological target: T6, recombinant human histidine-tagged CD13 (human, UniProt P15144 69-967, limits assumed); assay: CD13 enzyme kinetics inhibition, 60 mM potassium phosphate buffer, pH 7.4
T6 construct: Histidine tag present; also called aminopeptidase N
Text: FIG. 10. The peptide […] (SEQ ID NO: 3) inhibits CD13 enzymatic activity more efficiently than […] (SEQ ID NO:4) and acetylated-[…]. A) Steady state kinetic analysis of CD13 in the presence of various amounts of L-alanine p-nitroanilide substrate and […] (SEQ ID NO: 3), […] (SEQ ID NO:4), or acetylated-[…] (ac-[…]) (SEQ ID NO:42). A representative plot of 3-4 independent experiments, showing the initial velocity (V₀) versus substrate concentration (mean ± SE of four technical replicates), is shown. The assays were performed with recombinant human histidine-tagged CD13 (200-300 ng/ml) in 60 mM potassium phosphate buffer, pH 7.4, at room temperature. The kinetic of p-nitroanilide formation was monitored spectrophotometrically (A405 nm) for 5-10 min. The inhibitory constant (Ki) reported in each plot is the result of the 3-4 independent experiments (mean ± SE). B) Double reciprocal plots of the experiments reported in panel A.
Each experiment was performed with 4 technical replicates

[3] = biological target: T6, recombinant human histidine-tagged CD13; assay: CD13 enzyme kinetics inhibition, 50 mM Tris-HCl buffer, pH 7.4

Molecule	Ki (αvβ3 integrin) [µM]	Ki (αvβ8 integrin) [µM]	Ki (αvβ6 integrin) [µM]	Ki (αvβ5 integrin) [µM]	Ki (α5β1 integrin) [µM]	Ki [2] [µM]	Ki [3] [µM]	other results
CC(C)[C@H](NC(=O)CNC(=O)[C@@H]1CSSC[C@H](N)C(=O)N[C@@H](CC(N)=O)C(=O)NCC(=O)N[C@@H](CCCNC(=N)N)C(=O)N1)C(=O)N[C@@H](CCCNC(=N)N)C(=O)N[C@@H](Cc1ccc(O)cc1)C(=O)O [CNGRCGVRY, CNGRCGVRY (SEQ ID NO:4), reference compound] (H-CNGRCGVRY-OH; disulfide 1-5 (inferred); N-terminus and C-terminus assumed)	–	–	–	–	–	–	–	-17 Da form (succinimide intermediate of deamidation) ([1]; after 2 h at 37° C. in PBS): observed; +1 Da deamidation product (DGR/isoDGR) ([1]; after 32 h at 37° C. in PBS): observed; -17 Da form still present ([1]; after 32 h at 37° C. in PBS): a large amount of the -17 Da form was still present
CC(C)[C@H](NC(=O)CNC(=O)[C@@H]1CSSC[C@H](NC(=O)[C@@H](N)CO)C(=O)N[C@@H](CC(=O)O)C(=O)NCC(=O)N[C@@H](CCCNC(=N)N)C(=O)N1)C(=O)N[C@@H](CCCNC(=N)N)C(=O)N[C@@H](Cc1ccc(O)cc1)C(=O)O [SCDGRCGVRY, SCDGRCGVRY (SEQ ID NO:22)] (H-SCDGRCGVRY-OH; disulfide 2-6; N-terminus and C-terminus assumed)	–	–	–	–	–	–	–	affinity for integrins (αvβ3): no or very low affinity
TNF: Murine tumor necrosis factor-α (SEQ ID NO: 15) [reference compound]	–	–	–	–	–	–	–	EC50 cytotoxic activity (L-M cells): very similar
Ac-C[βAsp]GRCGVRY (disulfide 1-5) [acetyl-CisoDGRCGVRY peptide]	0.003	0.018	0.005	0.021	0.004	–	–	–
CNGRCGVRY (disulfide 1-5, Synthetic peptide corresponding to the N-terminal region of human NGR-TNF) [CNGRCGVRY peptide]	–	–	–	–	–	76.5	35.6	–
SC[βAsp]GRCGVRY (disulfide 2-6) [SCisoDGRCGVRY peptide]	0.017	0.156	0.025	0.077	0.011	–	–	–
SCNGRCGVRY (disulfide 2-6, Synthetic peptide corresponding to the N-terminal region of human S-NGR-TNF) [SCNGRCGVRY peptide]	> 10	> 10	> 10	> 10	> 10	25	6.8	–
SCDGRCGVRY [SCDGRCGVRY peptide]	3.34	21.4	5.5	0.779	4.79	–	–	–
Ac-CNGRCGVRY (disulfide 1-5) [acetylated-CNGRCGVRY peptide]	–	–	–	–	–	50.7	38.1	–
C[βAsp]GRCGVRY (disulfide 1-5) [CisoDGRCGVRY peptide]	0.011	0.554	0.131	0.391	0.075	–	–	–
